B1: CPEB3 Ribozyme (parent)
chain: UAACAGGGGGCCACAGCAGAAGCGUUCACGUCGCAGCCCCUGUCAGAUUCUGGUGAAUCUGCGAAUUCUGCUGUAUAUCUC

Variants of: B1
Test: self-cleavage, relative activity (ratio to wild type); higher = more cleavage; in vitro, sequencing
Procedure, shortened: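 Barcoded CPEB3 ribozyme mutants, produced by rounds of error-prone PCR, self-cleaved while being transcribed with T7 RNA polymerase for 5 hours at 37°C and during a subsequent 15 min DNase I step before EDTA was added. Sequencing of template-switched cDNA on Illumina gave cleaved and total reads, and DNA sequencing assigned barcodes to variants. Each variant's relative activity is its cleaved/total read fraction divided by the unmutated ribozyme's fraction, averaged across three batches. A variant needed a minimum of 5 reads.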
UAACAGGGGGCCACAGCAGAAGCGUUCACGUCGCAGCCCGUGUCAGAUUCUGGUGAAUCUGCGAAUUCUGCUGUAUAUCCC gave a self-cleavage of 0.19. For UAACAGGGGGCCACAGCAGAAGCGUUCACGUCGCAGCCCUUGUCAGAUUCUGGUUAAUCUGCGAAUUCUGCUGUAUAUCUC, the self-cleavage was 0.49. For UAACAGGGGGCCACAGCAGAAGCGUUCACGUCGCAGCCCUUGUCAGAUUCUGGUAAAUCUGCGAAUUCUGCUGUAUAUCUC, the self-cleavage was 0.67. In the case of UAACAGGGGGCCACAGCAGAAGCGUUCACGUCGCAGCCCGUGUCAGAUUCUGGUGAAUCUGCGAAUUCUGCGGUAUAUCUC, the self-cleavage is reported as 0.16. UAACAGGGGGCCACAGCAGAAGCGUUCACGUCGCAGCCCGUGUCAGAUUCUGGUGAAUCUGCGAAUUCUGCCGUAUAUCUC showed a self-cleavage of 0.48. In the case of UAACAGGGGGCCACAGCAGAAGCGUUCACGUCGCAGCCCUUGUCAGAUUCUGGUGAAACUGCGAAUUCUGCUGUAUAUCUC, the self-cleavage is reported as 0.3. For UAACAGGGGGCCACAGCAGAAGCGUUCACGUCGCAGCCCUUGUCAGAUUCUGGUGAACCUGCGAAUUCUGCUGUAUAUCUC, the self-cleavage was 0.24. For UAACAGGGGGCCACAGCAGAAGCGUUCACGUCGCAGCCCUUGUCAGAUUCUGAUGAAUCUGCGAAUUCUGCUGUAUAUCUC, the self-cleavage was 0.84. With UAACAGGGGGCCACAGCAGAAGCGUUCACGUCGCAGCCCUUGUCAGAUUCUGGUGAAUCUGCGAAUUCUGAUGUAUAUCUC the self-cleavage was 0.17. Work on UAACAGGGGGCCACAGCAGAAGCGUUCACGUCGCAGCCCUUGUCAGAUUCGGGUGAAUCUGCGAAUUCUGCUGUAUAUCUC yielded a self-cleavage of 0.49. With UAACAGGGGGCCACAGCAGAAGCGUUCACGUCGCAGCCCUUGUCAGAUUCAGGUGAAUCUGCGAAUUCUGCUGUAUAUCUC the self-cleavage was 0.84. For UAACAGGGGGCCACAGCAGAAGCGUUCACGUCGCAGCCCUUGUCAGAUUCCGGUGAAUCUGCGAAUUCUGCUGUAUAUCUC, the self-cleavage was 0.65. For UAACAGGGGGCCACAGCAGAAGCGUUCACGUCGCAGCCCGUGUCAGAUUCUGGGGAAUCUGCGAAUUCUGCUGUAUAUCUC, the self-cleavage was 0.29. Variant UAACAGGGGGCCACAGCAGAAGCGUUCACGUCGCAGCCCUUGUCAGAUUCUGGUGAAUCUGCGAUUUCUGCUGUAUAUCUC has a self-cleavage of 0.37. In the case of UAACAGGGGGCCACAGCAGAAGCGUUCACGUCGCAGCCCUUGUCAGAUUCUGGUGAAUCUGCGAGUUCUGCUGUAUAUCUC, the self-cleavage is reported as 0.27. Variant UAACAGGGGGCCACAGCAGAAGCGUUCACGUCGCAGCCCUGGUCAGAUUCUGGUGAAUCUGCGAAUUCUGCUGUAUAUCUC has a self-cleavage of 0.16. In the case of UAACAGGGGGCCACAGCAGAAGCGUUCACGUCGCAGCCCUCGUCAGAUUCUGGUGAAUCUGCGAAUUCUGCUGUAUAUCUC, the self-cleavage is reported as 0.92. Variant UAACAGGGGGCCACAGCAGAAGCGUUCACGUCGCAGCCCUAGUCAGAUUCUGGUGAAUCUGCGAAUUCUGCUGUAUAUCUC has a self-cleavage of 0.25. UAACAGGGGGCCACAGCAGAAGCGUUCACGUCGCAGCCCUUGUCCGAUUCUGGUGAAUCUGCGAAUUCUGCUGUAUAUCUC showed a self-cleavage of 0.17. With UAACAGGGGGCCACAGCAGAAGCGUUCACGUCGCAGCCCUUGUCUGAUUCUGGUGAAUCUGCGAAUUCUGCUGUAUAUCUC the self-cleavage was 0.15. UAACAGGGGGCCACAGCAGAAGCGUUCACGUCGCAGCCCUUGUCGGAUUCUGGUGAAUCUGCGAAUUCUGCUGUAUAUCUC showed a self-cleavage of 0.55. UAACAGGGGGCCACAGCAGAAGCGUUCACGUCGCAGCCCUUGUCAGUUUCUGGUGAAUCUGCGAAUUCUGCUGUAUAUCUC showed a self-cleavage of 0.32. In the case of UAACAGGGGGCCACAGCAGAAGCGUUCACGUCGCAGCCCUUGUCAGGUUCUGGUGAAUCUGCGAAUUCUGCUGUAUAUCUC, the self-cleavage is reported as 0.5. UAACAGGGGGCCACAGCAGAAGCGUUCACGUCGCAGCCCUUAUCAGAUUCUGGUGAAUCUGCGAAUUCUGCUGUAUAUCUC showed a self-cleavage of 0.27. Work on UAACAGGGGGCCACAGCAGAAGCGUUCACGUCGCAGCCCUUGUCAGAUUCUGGUGAAUCUGCGAACUCUGCUGUAUAUCUC yielded a self-cleavage of 0.33. Work on UAACAGGGGGCCACAGCAGAAGCGUUCACGUCGCAGCCCUUGUCAGAUUCUGGUGAAUCUGCGAAAUCUGCUGUAUAUCUC yielded a self-cleavage of 0.23. UAACAGGGGGCCACAGCAGAAGCGUUCACGUCGCAGCCCUUGUCAGAUUCUGGUGUAUCUGCGAAUUCUGCUGUAUAUCUC gave a self-cleavage of 0.32. For UAACAGGGGGCCACAGCAGAAGCGUUCACGUCGCAGCCCUUGUCAGAUUCUGGUGGAUCUGCGAAUUCUGCUGUAUAUCUC, the self-cleavage was 0.48. UAACAGGGGGCCACAGCAGAAGCGUUCACGUCGCAGCCCUUGUCAGAUUCUGGUGCAUCUGCGAAUUCUGCUGUAUAUCUC showed a self-cleavage of 0.32. With UAACAGGGGGCCACAGCAGAAGCGUUCACGUCGCAGCCCGUGUCAGAUUCUGGUGAAUCUGCGAAUUCUGCUGUAUACCUC the self-cleavage was 0.38. UAACAGGGGGCCACAGCAGAAGCGUUCACGUCGCAGCCCUUGUCAGAUACUGGUGAAUCUGCGAAUUCUGCUGUAUAUCUC gave a self-cleavage of 0.2. Work on UAACAGGGGGCCACAGCAGAAGCGUUCACGUCGCAGCCCUUGUCAGAUCCUGGUGAAUCUGCGAAUUCUGCUGUAUAUCUC yielded a self-cleavage of 0.36. UAACAGGGGGCCACAGCAGAAGCGUUCACGUCGCAGCCCUUGUCAGAUUCUGGUGAAUCUACGAAUUCUGCUGUAUAUCUC showed a self-cleavage of 0.42. Work on UAACAGGGGGCCACAGCAGAAGCGUUCACGUCGCAGCCCUUGUCAGAUUCUGGUGAAUCUGCGAAUCCUGCUGUAUAUCUC yielded a self-cleavage of 0.23.
